In US20070098715A1 (published 2007):
Like-named read-outs stand apart in the source and are kept apart here.

B1: Ten-M2-7.1.1 (antibody, IgG2, V domains shown)
VH: QVQLVESGGGVVQPGRSLRLSCAASGFTFSNYGMHWVRQAPGKGLEWVAVIPFDGSNKYYADSVKGRFTISRDNSKNTLYLQTNSLRAEDTAVYYCARNWGYFDYWGQGTLVTVSS
VL: DIVMTQSPLSLPVTPGEPASISCRTSQSLLQSNGYNYLDWYLQKPGQSPQLLIYLGSSRASGVPDRFSGSGSGTDFTLKISRVEAEDVGVYYCMQALQTLTFGGGTKVEIK
notes: Hybridoma clone from IgG2 kappa XenoMouse; tested as hybridoma supernatant
B2: Ten-M2-199 (antibody, IgG2, V domains shown)
VH: QVQLVQSGAEVKKPGASVKVSCKASGYTFTNYDINWLRQASGQGLEWMGWMNPDSGNTGYAQRFQGRVTMTRDTSISTAYMELSSLRSEDTAVYYCARYISSLHYYYYGMDVWGQGTTVTVSS
VL: DIQMTQSPSSLSASVGDRVTITCRASQSINSYLNWYQQKPGKAPRLLIYAASNLQSGVPSRFSGSGSGTDFTLTISSLQPEDFSTYYCQQSHNTPLTFGGGTKVEIK
notes: Fully human mAb from IgG2 kappa XenoMouse (B cell clone); also called Mab199
B3: Ten-M2-213 (antibody, IgG2, V domains shown)
VH: QVQLVQSGAEVKKPGASVKVSCKASGYTFTNYDINWVRQATGQGLEWMGWMNPNSGNTGYAQKFQGRVTMTRNTSIRTAYMELSSLRSEDTAVYYCARGPGGSFYYYYGMDVWGQGTTVTVSS
VL: DIQMTQSPSSLSASVGDRVTITCRASQSISSYLNWYQQKPGKAPNLLIYTASSLQSGVPSRFSGSGSGTVFTLTISSLQPEDFATYYCQQSSSTPFTFGPGTKVDFK
notes: Fully human mAb from IgG2 kappa XenoMouse (B cell clone); also called Mab 213
B4: Ten-M2-188 (antibody, IgG2, V domains shown)
VH: QVQLVQSGAEVKKPGASVKVSCKASGYTFTGYYMHWVRQAPGQGLEWMGWINPNSGGTNSAQRFQGRVTMTRDTSIYTAYMELSRLRSDDTAVYYCAREYRSGRYYNGMDVWGQGTTVTVSS
VL: DIQLTQSPSSLSASVGDRVTITCRASQDISNYLAWYQQKPGKVPKLLIYAASTLQSGVPSRFSGSGSGTDFTLTISSLQPEDIATYSCQKYSSTPFTFGPGTKVDIK
notes: Fully human mAb from IgG2 kappa XenoMouse (B cell clone)
B5: Ten-M2-8.1 (antibody, IgG2, V domains shown)
VH: QVQLQQWGAGLLKPSETLSLTCAVYGGSFSHYYWSWIRQPPGKGLEWIGEINHSGSTNYNPSLKSRVTISVDTSKNQFSLKLSSVTAADTAVYYCARDITMVRGLGGMDVWGQGTTVTVSS
VL: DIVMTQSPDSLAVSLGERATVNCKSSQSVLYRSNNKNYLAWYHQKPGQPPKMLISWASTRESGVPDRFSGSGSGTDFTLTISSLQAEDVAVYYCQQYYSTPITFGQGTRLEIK
notes: as for B1
B6: Ten-M2-120 (antibody, V domains shown)
VH: QVQLVESGGGVVQPGRSLRLSCAASGFTFSSYGMHWVRQAPGKGLEWVAVLWYDGSKKFYADSVKGRFTISRDNSKNTLYLQMNSLRAEDTALYYCARGPWNYYYYGMDVWGQGTTVTVSS
VL: EIVLTQSPGTLSLSPGERATLSCRASQSVISSYLAWYQQKPGQAPRLLIYNASNRATGIPDRFSGSGSGTDFTLTISRLEPEDFAVYYCQQYGSSPITFGQGTRLEIK
notes: also called Mab120
B7: Ten-M2-140 (antibody, IgG2, V domains shown)
VH: QEQLVESGGGVVQPGRSLRLSCAASGFTFSSHGMHWVRQAPGKGLEWVAIIWYDGSKKFYADSVKGRFTISRDNSKNTLSLQMNSLRAEDTAVYYCARGPWNYYYYGMDVWGQGTTVTVSS
VL: EIVLTQSPGTLSLSPGERATFSCRASQSVISNYLAWYQQKPGQAPRLLIYNTSSRATGIPGRFSGGGSGTDFTLTITRLEPEDFAVYYCQQYGSSPITFGQGTRLEIK
notes: Fully human mAb from IgG2 kappa XenoMouse (B cell clone); also called Mab140; anti-Ten-M2 monoclonal antibody clone 140
B8: Ten-M2-179 (antibody, IgG2, V domains shown)
VH: QVQLVESGGGVVQPGRSLRLSCAASGFTFSSYGMHWVRQAPGKGLEWVAFIWYDGSNKYYADSVKGRFTISRDNSKNTLYLQMNSLRAEDTAVYYCARDGSSGWYFFDYWGQGTLVTVSS
VL: DIVMTQTPLSLSVTPGQPASISCKSSQSLLHSDRQTYLFWYLQKPGQPPQLLIYEVSNRFSGVPDRFSGSGSGTDFTLKISRVEAEDVGVYYCMQSIQLPPTFGPGTKVDIK
notes: Fully human mAb from IgG2 kappa XenoMouse (B cell clone); also called Mab179
B9: Ten-M2-7.2.1 (antibody, IgG2, V domains shown)
VH: QVQLQESGPGLVKPSETLSLTCTVSGGSISSYYWSWIRQPPGKGLEWIGYIYYSGNTNYNPSLKSRVTISVDTSKNQFSLKLSSVTAADTAVYYCARDIVVVPAARDYDYYYGMDVWGQGTTVTVSS
VL: EIVLTQFPGTLSLSPGESAPLSCRASQSVSSIDLVWYQQKPGQAPRLLIYGASSRATGIPDRFSVSGSGTDFTLTISRLEPEDFAVYYCQQYGSSPFTFGPGTKVDIK
notes: as for B1

Columns and labels:
[1] = target: T1, soluble Ten-M2 antigen (FIG. 1B), Ten-M2 amino acids 400-2733 with 6xHis-V5 tag (human, UniProt Q9NT68 399-2774); assay: ELISA, plate coated with soluble Ten-M2 antigen, hybridoma supernatant
T1 construct: also called Curagen 007-V5HIS; soluble Ten-M2 (Cur007) ECD

[2] = target: T2, Ten-M2 endogenously expressed on human cancer cell lines (SNB-19 and others) (human, UniProt Q9NT68 1-2774); assay: cell-based or functional assay
[3] = target: T2, Ten-M2 endogenously expressed on human …; assay: flow cytometry on SNB-19 cells at 4° C., Alexa647 anti-human IgG secondary
[4] = target: T3, Ten-M2 antigen (BiaCore analyte) (UniProt Q9NT68 399-2774)
[5] = target: T3, Ten-M2 antigen (BiaCore analyte); remark: listed apart in the source
[6] = target: T3, Ten-M2 antigen (BiaCore analyte); remark: listed apart in the source
[7] = target: T3, Ten-M2 antigen (BiaCore analyte); remark: listed apart in the source

Binder	binding result [1]	% Internalization (SNB-19 cells) [2]	Internalized Fluorescence (SNB-19 cells, 37° C. 30 min, glutathione-resistant) [2]	Total Bound Fluorescence [3]	Kd [4]	koff [5]	kon [6]	Kd [6]	koff [6]	Kd [7]
B1	binds									
B2		46%	32.9	64.8	≤ 0.043 nM	≤ 1e-06 s⁻¹	23300 M⁻¹ s⁻¹			
B3		46%	40.2	79.7			29000 M⁻¹ s⁻¹	1.1 nM	3.22e-05 s⁻¹	
B4		48%	22.1	41.6						
B5	binds									
B6		40%	26.4	58.4			26200 M⁻¹ s⁻¹		0.000465 s⁻¹	18 nM
B7		44%	36.5	75.3			40100 M⁻¹ s⁻¹		0.000605 s⁻¹	15 nM
B8		29%	13.6	89.6	≤ 0.61 nM	≤ 1e-05 s⁻¹	16300 M⁻¹ s⁻¹			
B9	binds									
